T1: gp23* (major capsid protein of bacteriophage T4, cleaved mature form, in the expanded surface lattice) (bacteriophage T4, UniProt P04535 66-521)
T1 construct: mature; also called surface lattice protein; cleaved/expanded polyheads
T1 sequence: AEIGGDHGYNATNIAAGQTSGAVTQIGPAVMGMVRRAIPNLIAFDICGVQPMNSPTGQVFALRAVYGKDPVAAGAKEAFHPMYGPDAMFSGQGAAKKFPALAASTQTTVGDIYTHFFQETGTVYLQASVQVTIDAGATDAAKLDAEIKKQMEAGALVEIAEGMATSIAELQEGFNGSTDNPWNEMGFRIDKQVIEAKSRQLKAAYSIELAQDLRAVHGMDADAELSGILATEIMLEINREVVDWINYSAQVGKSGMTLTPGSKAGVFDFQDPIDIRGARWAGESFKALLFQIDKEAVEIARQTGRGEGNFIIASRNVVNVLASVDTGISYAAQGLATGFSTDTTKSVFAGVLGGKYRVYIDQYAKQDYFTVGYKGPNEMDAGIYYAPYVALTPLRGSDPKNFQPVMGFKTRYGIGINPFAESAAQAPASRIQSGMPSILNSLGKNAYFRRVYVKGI

B1: SOC (small outer capsid) protein of bacteriophage T4, wild type (other)
chain: MASTRGYVNIKTFEQKLDGNKKIEGKEISVAFPLYSDVHKISGAHYQTFPSEKAAYSTVYEENQRTEWIAANEDLWKVTG
notes: mature
B2: SOC-V3 fusion protein (SOC, Cys-Leu-Asn-Ser, 43-residue V3 loop domain of HIV-1 gp120) (other)
chain: MASTRGYVNIKTFEQKLDGNKKIEGKEISVAFPLYSDVHKISGAHYQTFPSEKAAYSTVYEENQRTEWIAANEDLWKVTGCLNSSVEINCTRPNNNTRKRIRIQRGPGRAFVTIGKIGNMRQAHCNI
notes: mature;domain: V3 loop; also called SOV-V3

Biological target: T1, gp23* (major capsid protein of …)
Experiment: co-pelleting with cleaved/expanded polyheads, quantitation of SDS-PAGE bands

| Binder | molar ratio of SOC:gp23* [mol/mol] | molar ratio of SOC-V3:gp23* [mol/mol] |
| --- | --- | --- |
| B1 | 1.2 | – |
| B2 | – | 1.8 |
